Consider 45 molecules from patent US20260167673A1, “NOVEL POLYPEPTIDE, POLYPEPTIDE DERIVATIVE AND USE THEREOF” (NANJING ANJI BIOTECHNOLOGY CO., LTD., priority 2023, published 2026).

Residue numbers refer to the chain shown, from its start. Where no end group is shown, it is not given here.

The nature of data set [1]: Solubility of the synthesized polypeptides. As to conditions: for solubility: polypeptides obtained by chemical solid-phase synthesis.
The target in a further data set is T1, AQP2 protein (UniProt P41181 1-271, limits assumed).
T1 construct: also called protein AQP2
T1 sequence (looked up): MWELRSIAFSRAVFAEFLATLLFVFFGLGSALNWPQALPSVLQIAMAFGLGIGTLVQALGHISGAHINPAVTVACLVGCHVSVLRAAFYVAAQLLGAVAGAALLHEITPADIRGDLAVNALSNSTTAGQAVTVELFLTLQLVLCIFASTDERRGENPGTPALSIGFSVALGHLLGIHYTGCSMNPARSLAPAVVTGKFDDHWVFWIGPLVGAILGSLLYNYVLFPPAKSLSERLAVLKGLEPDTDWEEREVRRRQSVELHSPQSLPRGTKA
The data set can be described thus: microscale thermophoresis (MST); column head 'Affinity (µM)'. As for the experimental part: Molecular docking simulation was performed on the micropeptide HMMW and a binding protein AQP2 thereof using MOE software, to identify predicted potential interaction sites. The docking simulation was divided into the following two groups: (1) random docking of an AQP2 homotetramer with the HMMW, without limiting a binding region; and (2) random docking of an AQP2 monomer with the HMMW, without limiting a binding region. Interaction sites obtained from the above two docking methods were integrated and analyzed, and all possible binding amino acids were selected as potential key sites for alanine (Ala) mutations. Due to alanine being the smallest chiral amino acid, the impact of a specific amino acid on an overall protein biological activity can be distinguished by systematically and sequentially substituting each amino acid in a sequence with Ala. The predicted polypeptides were obtained by solid-phase synthesis, and the affinity of different mutated polypeptides to the AQP2 protein was detected by microscale thermophoresis (MST) assay.
Background: Microscale thermophoresis detects binding through changes in fluorescence in a small temperature gradient.

“MERAGVPGFSPRRSSVEAKMQSTSCSVRKSSTVTAWPAVLSWGQRRGG [HMMW-14]”: in data set [1], the “Solubility PBS/0.1% DMSO” value is “Soluble”.

As for “MERAGVPGFSPRRSSVEAKMQCSVRKSSTVTAWPAVVLLLSWGQRRGG [HMMW-8]”, the “Solubility PBS/0.1% DMSO” value in data set [1] was “Soluble”.

As for “MERAGVPGFSPRRSSVEASTSCSVRKSSTVTAWPAVVLLLSWGQRRGG [HMMW-7]”, the “Solubility PBS/0.1% DMSO” value in data set [1] is given as “Soluble”.

As for “MQSTSCSVRKSSTVTAWPAVVLLLSWGQRRGG [HMMW20-51]”, the solubility entry in data set [1] is given as “good solubility”.

As for “MERPGFSPRRSSVEAKMQSTSCSVRKSSTVTAWPAVVLLLSWGQRRGG [HMMW-2]”, the “Solubility PBS/0.1% DMSO” value in data set [1] is reported as “Soluble”.

On to “MERAGVPGFSPRRSSKMQSTSCSVRKSSTVTAWPAVVLLLSWGQRRGG [HMMW-6]”, for which, in data set [1], the “Solubility PBS/0.1% DMSO” value is listed as “Soluble”.

On to “GVPGFSPRRSSVEAKMQSTSCSVRKSSTVTAWPAVVLLLSWGQRRGG [HMMW5-51]”, for which the solubility entry in data set [1] is listed as “good solubility”.

Regarding “MERAGVPGFSPRRSSVEAKMQSTSCSVRKSSTVPAVVLLLSWGQRRGG [HMMW-12]”, the “Solubility PBS/0.1% DMSO” value in data set [1] is “Soluble”.

As to “SVEAKMQSTSCSVRKSSTVTAWPAVVLLLSWGQRRGG [HMMW15-51]”, in data set [1], the solubility entry was “good solubility”.

As to “MERAGVPGFSPRRSSVEAKMQSTSCSVRKSSTVTAWPAVVLLLSWRGG [HMMW-16]”, the “Solubility PBS/0.1% DMSO” value in data set [1] is on record as “Soluble”.

Regarding “AGVPGFSPRRSSVEAKMQSTSCSVRKSSTVTAWPAVVLLLSWGQRRGG [HMMW-1]”, the “Solubility PBS/0.1% DMSO” value in data set [1] was “Soluble”.

On to “MERAGVPGFSPRRSSVEAKMQSTSRKSSTVTAWPAVVLLLSWGQRRGG [HMMW-9]”, for which the “Solubility PBS/0.1% DMSO” value in data set [1] is on record as “Soluble”.

“MERAGVPGFSPRVEAKMQSTSCSVRKSSTVTAWPAVVLLLSWGQRRGG [HMMW-5]”: in data set [1], the “Solubility PBS/0.1% DMSO” value is reported as “Soluble”.

As to “SPRRSSVEAKMQSTSCSVRKSSTVTAWPAVVLLLSWGQRRGG [HMMW10-51]”, the solubility result in data set [1] is “good solubility”.

On to “MERAGVSPRRSSVEAKMQSTSCSVRKSSTVTAWPAVVLLLSWGQRRGG [HMMW-3]”, for which the “Solubility PBS/0.1% DMSO” value in data set [1] is “Soluble”.

As to “MERAGVPGFSPRRSSVEAKMQSTSCSVRKSSTVTAWPAVVLLGQRRGG [HMMW-15]”, the “Solubility PBS/0.1% DMSO” value in data set [1] is recorded as “Soluble”.

B1: micropeptide HMMW (peptide)
peptide: MERAGVPGFSPRRSSVEAKMQSTSCSVRKSSTVTAWPAVVLLLSWGQRRGG
notes: 51-residue micropeptide encoded by a lncRNA
With B1, the Kd (commonly the equilibrium constant for the complex coming apart) with AQP2 protein came out at 3.07 µM.

B2: HMMW-9A (peptide)
peptide: B1 peptide with F9A
notes: Alanine mutant of HMMW at position 9; solid-phase synthesis
On to B2, for which the Kd with AQP2 protein was found to be 3.95 µM.

B3: HMMW-49A (peptide)
peptide: B1 peptide with R49A
notes: Alanine mutant of HMMW at position 49; solid-phase synthesis
On to B3, for which the Kd with AQP2 protein is 20.8 µM.

B4: HMMW-30A (peptide)
peptide: B1 peptide with S30A
notes: Alanine mutant of HMMW at position 30; solid-phase synthesis
On to B4, for which the affinity with AQP2 protein, expressed as Kd, was 2.23 µM.

B5: HMMW-41A (peptide)
peptide: B1 peptide with L41A
notes: Alanine mutant of HMMW at position 41; solid-phase synthesis
For the molecule B5, the dissociation constant (Kd) in the data set with AQP2 protein amounted to 4.32 µM.

B6: HMMW-44A (peptide)
peptide: B1 peptide with S44A
notes: Alanine mutant of HMMW at position 44; solid-phase synthesis
For the molecule B6, in the data set with AQP2 protein, the Kd stood at 5.23 µM.

B7: HMMW-17A (peptide)
peptide: B1 peptide with E17A
notes: Alanine mutant of HMMW at position 17; solid-phase synthesis
Molecule B7 registered a Kd with AQP2 protein of 3.93 µM.

B8: HMMW-20A (peptide)
peptide: B1 peptide with M20A
notes: Alanine mutant of HMMW at position 20; solid-phase synthesis
On to B8, for which the Kd in the data set with AQP2 protein is 2.59 µM.

B9: HMMW-27A (peptide)
peptide: B1 peptide with V27A
notes: Alanine mutant of HMMW at position 27; solid-phase synthesis
Regarding B9, binding with AQP2 protein was put at a Kd of 2.39 µM.

B10: HMMW-8A (peptide)
peptide: B1 peptide with G8A
notes: Alanine mutant of HMMW at position 8; solid-phase synthesis
On to B10, for which, in the data set with AQP2 protein, the Kd is 14.8 µM.

B11: HMMW-25A (peptide)
peptide: B1 peptide with C25A
notes: Alanine mutant of HMMW at position 25; solid-phase synthesis
Take B11: the Kd in the data set with AQP2 protein came to 1.97 µM.

B12: HMMW-2A (peptide)
peptide: B1 peptide with E2A
notes: Alanine mutant of HMMW at position 2; solid-phase synthesis
In turn, B12 yielded a Kd with AQP2 protein of 2.5 µM.

B13: HMMW-42A (peptide)
peptide: B1 peptide with L42A
notes: Alanine mutant of HMMW at position 42; solid-phase synthesis
B13 returned a Kd with AQP2 protein of 0.25 µM.

B14: HMMW-48A (peptide)
peptide: B1 peptide with R48A
notes: Alanine mutant of HMMW at position 48; solid-phase synthesis
In the case of B14, in the data set with AQP2 protein, binding was characterised by a dissociation constant (Kd) of 11.6 µM.

B15: HMMW-43A (peptide)
peptide: B1 peptide with L43A
notes: Alanine mutant of HMMW at position 43; solid-phase synthesis
Consider B15, for which binding with AQP2 protein was put at a Kd of 0.36 µM.

B16: HMMW-19A (peptide)
peptide: B1 peptide with K19A
notes: Alanine mutant of HMMW at position 19; solid-phase synthesis
The molecule B16 had a Kd with AQP2 protein of 5.11 µM.

B17: HMMW-32A (peptide)
peptide: B1 peptide with T32A
notes: Alanine mutant of HMMW at position 32; solid-phase synthesis
As to B17, in the data set with AQP2 protein, the Kd was found to be 2.01 µM.

B18: HMMW-40A (peptide)
peptide: B1 peptide with V40A
notes: Alanine mutant of HMMW at position 40; solid-phase synthesis
B18 showed a Kd in the data set with AQP2 protein of 1.19 µM.

B19: HMMW-11A (peptide)
peptide: B1 peptide with P11A
notes: Alanine mutant of HMMW at position 11; solid-phase synthesis
B19 displayed an equilibrium dissociation constant (Kd) with AQP2 protein of 2.33 µM.

B20: HMMW-10A (peptide)
peptide: B1 peptide with S10A
notes: Alanine mutant of HMMW at position 10; solid-phase synthesis
On to B20, for which the Kd with AQP2 protein was found to be 4.03 µM.

B21: HMMW-13A (peptide)
peptide: B1 peptide with R13A
notes: Alanine mutant of HMMW at position 13; solid-phase synthesis
As for B21, in the data set with AQP2 protein, binding was put at a Kd of 6.61 µM.

B22: HMMW-12A (peptide)
peptide: B1 peptide with R12A
notes: Alanine mutant of HMMW at position 12; solid-phase synthesis
On to B22, for which binding in the data set with AQP2 protein was characterised by a dissociation constant (Kd) of 1.12 µM.

B23: HMMW-31A (peptide)
peptide: B1 peptide with S31A
notes: Alanine mutant of HMMW at position 31; solid-phase synthesis
In the data set with AQP2 protein, B23 displayed a dissociation constant (Kd) of 3.06 µM.

B24: HMMW-45A (peptide)
peptide: B1 peptide with W45A
notes: Alanine mutant of HMMW at position 45; solid-phase synthesis
With B24, in the data set with AQP2 protein, the Kd worked out at 3.24 µM.

B25: HMMW-21A (peptide)
peptide: B1 peptide with Q21A
notes: Alanine mutant of HMMW at position 21; solid-phase synthesis
Turning to B25, binding with AQP2 protein was put at a Kd of 7.64 µM.

B26: HMMW-50A (peptide)
peptide: B1 peptide with G50A
notes: Alanine mutant of HMMW at position 50; solid-phase synthesis
In the data set with AQP2 protein, B26 came in with a Kd of 0.55 µM.

B27: HMMW-22A (peptide)
peptide: B1 peptide with S22A
notes: Alanine mutant of HMMW at position 22; solid-phase synthesis
B27 had a Kd in the data set with AQP2 protein of 3.21 µM.

B28: HMMW-28A (peptide)
peptide: B1 peptide with R28A
notes: Alanine mutant of HMMW at position 28; solid-phase synthesis
On to B28, for which, in the data set with AQP2 protein, binding was put at a Kd of 2.27 µM.

B29: HMMW-3A (peptide)
peptide: B1 peptide with R3A
notes: Alanine mutant of HMMW at position 3; solid-phase synthesis
For the molecule B29, the Kd in the data set with AQP2 protein was 2.8 µM.
